PMC10400905

Molecular target: C4BPα1–2 (His6-tagged fragment of human C4b-binding protein) (human)
Test: ITC; 23 °C, PBS; 300 to 500 μM intact M2 or M2G in the syringe, 30 to 50 μM C4BPα1–2 in the cell; single-site model

Work on “M2G (M2_(53)G; M2 aa 53–86 fused to GCN4)” yielded a Kd of 4 µM, a dH of -27 kcal/mol and a stoichiometry N of 0.51.

“intact M2 protein (Streptococcus pyogenes, strain AP2) (natural protein)” gave a Kd of 4 µM, a dH of -24 kcal/mol and a stoichiometry N of 0.5.
